Data on 1 substance can be found in PMC3579940.

Test [1] concerns the target biotin-AR-CTF. Description: SPR; BIAcore S51; biotin-EGFR-ligand-CTFs immobilised (~1000 RU) on streptavidin chips; GST-ZnF5-8 0.03-1.0 µM injected at 30 µL/min for 2 min, 25°C; 10 mM HEPES pH 7.4, 150 mM NaCl, 0.005% Surfactant P20; KD = kd/ka. A general note: In SPR one partner is held on a chip, and binding of the other changes the refractive index at the surface.
Test [2] concerns the target biotin-EPR-CTF. The test is described as above.

For orientation: Kd means the free concentration of one partner at which half of the binding sites on the other are occupied at equilibrium, for simple one-to-one binding. Higher therefore signals lower affinity. The term koff denotes the first-order rate constant of dissociation. Read a high koff as a short-lived complex. Broadly, the kon is a measure of how fast the partners come together. Low readings indicate slow association, high ones fast association. Turning to “recombinant GST-tagged ZnF5-8 of PLZF (domain or fragment)”, in test [1], the Kd was 76.5 nM, the koff was 0.00144 s⁻¹ and the kon turned out to be 18700 M⁻¹ s⁻¹. Moreover, in test [2], the Kd came out at 146 nM, the koff was found to be 0.000806 s⁻¹ and the kon is 5610 M⁻¹ s⁻¹.
